# Experimental data as given in FireProtDB (doi:10.1021/bi0362267).
# B1: Ribonuclease wild type, P00648 (protein)
# chain: MMKMEGIALKKRLSWISVCLLVLVSAAGMLFSTAAKTETSSHKAHTEAQVINTFDGVADYLQTYHKLPDNYITKSEAQALGWVASKGNLADVAPGKSIGGDIFSNREGKLPGKSGRTWREADINYTSGFRNSDRILYSSDWLIYKTTDHYQTFTKIR
# Settings: Bacillus amyloliquefaciens, pH 6.3, Thermal, CD, Mes 50 mM, whole UniProt chain shown
protein,measurement,setting,value
B1,unfolding free energy,25 °C,9.5 kcal/mol
same,Tm,,52.2 °C
same,unfolding enthalpy (van 't Hoff),,137 kcal/mol
